Measured values from article PMC2990805 (2012).

Target: T1, Cyt1Aa (Bacillus thuringiensis subsp. …, UniProt P0A382)
T1 chain: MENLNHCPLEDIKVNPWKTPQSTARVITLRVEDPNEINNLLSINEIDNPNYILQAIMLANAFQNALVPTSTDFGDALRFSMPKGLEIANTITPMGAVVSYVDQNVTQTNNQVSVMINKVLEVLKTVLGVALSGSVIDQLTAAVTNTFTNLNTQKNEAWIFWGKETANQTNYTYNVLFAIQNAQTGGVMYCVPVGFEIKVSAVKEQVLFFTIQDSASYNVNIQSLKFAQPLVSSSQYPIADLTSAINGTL
Test: ELISA

B1: Cry4Ba (protein)
chain: NSGYPLANDLQGSMKNTNYKDWLAMCENNQQYGVNPAAINSSSVSTALKVAGAILKFVNPPAGTVLTVLSAVLPILWPTNTPTPERVWNDFMTNTGNLIDQTVTAYVRTDANAKMTVVKDYLDQYTTKFNTWKREPNNQSYRTAVITQFNLTSAKLRETAVYFSNLVGYELLLLPIYAQVANFNLLLIRDGLINAQEWSLARSAGDQLYNTMVQYTKEYIAHSITWYNKGLDVLRNKSNGQWITFNDYKREMTIQVLDILALFASYDPRRYPADKIDNTKLSKTEFTREIYTALVESPSSKSIAALEAALTRDVHLFTWLKRVDFWTNTIYQDLRFLSANKIGFSYTNSSAMQESGIYGSSGFGSNLTHQIQLNSNVYKTSITDTSSPSNRVTKMDFYKIDGTLASYNSNITPTPEGLRTTFFGFSTNENTPNQPTVNDYTHILSYIKTDVIDYNSNRVSFAWTHKIVDPNNQIYTDAITQVPAVKSNFLNATAKVIKGPGHTGGDLVALTSNGTLSGRMEIQCKTSIFNDPTRSYGLRIRYAANSPIVLNVSYVLQGVSRGTTISTESTFSRPNNIIPTDLKYEEFRYKDPFDAIVPMRLSSNQLITIAIQPLNMTSNNQVIIDRIEIIPITQSVLDETENQNLESEREVVNALFTNDAKDALNIGTTDYDIDQAANLVECISEELYPKEKMLLLDEVKNAKQLSQSRNVLQNGDFESATLGWTTSDNITIQEDDPIFKGHYLHMSGARDIDGTIFPTYIFQKIDESKLKPYTRYLVRGFVGSSKDVELVVSRYGEEIDAIMNVPADLNYLYPSTFDCEGSNRCETSAVPANIGNTSDMLYSCQYDTGKKHVVCQDSHQFSFTIDTGALDTNENIGVWVMFKISSPDGYASLDNLEVIEEGPIDGEALSRVKHMEKKWNDQMEAKRSETQQAYDVAKQAIDALFTNVQDEALQFDTTLAQIQYAEYLVQSIPYVYNDWLSDVPGMNYDIYVELDARVAQARYLYDTRNIIKNGDFTQGVMGWHVTGNADVQQIDGVSVLVLSNWSAGVSQNVHLQHNHGYVLRVIAKKEGPGNGYVTLMDCEENQEKLTFTSCEEGYITKTVDVFPDTDRVRIEIGETEGSFYIESIELICMNE
modifications: trypsin-activated Cry4Ba, proteinase K-activated Cyt1Aa
How did the Kd turn out when B1 was run?
Its Kd is 47 nM.
